# Measured values published in patent US20260146071A1, “CCR2 INHIBITORS AND METHODS OF USE” (ORION BIOTECHNOLOGY USA Corp., priority 2022, published 2026).
# Where no end group is shown, it is not given here. [ ]: non-standard residue; d: D form. Nle = CCCC[C@H](N)C(=O)O
# Target: T1, CCR2 (Homo sapiens, UniProt P41597)
# T1 construct: endogenous in cells; host or cells: THP-1
# T1 sequence (P41597 1-360 isoform P41597-2): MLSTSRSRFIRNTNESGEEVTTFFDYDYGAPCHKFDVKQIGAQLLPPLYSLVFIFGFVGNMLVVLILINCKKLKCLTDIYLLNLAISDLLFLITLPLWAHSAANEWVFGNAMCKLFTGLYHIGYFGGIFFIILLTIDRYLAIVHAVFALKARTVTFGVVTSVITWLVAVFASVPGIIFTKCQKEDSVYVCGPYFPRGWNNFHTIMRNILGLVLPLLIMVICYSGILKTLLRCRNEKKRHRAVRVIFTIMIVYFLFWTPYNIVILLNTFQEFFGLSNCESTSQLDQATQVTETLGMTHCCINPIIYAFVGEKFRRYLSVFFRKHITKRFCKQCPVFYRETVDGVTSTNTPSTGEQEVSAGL
# Assay: CCR2 inhibitory potency assay, calcium flux method, THP-1 cells stimulated with 100 nM CCL2
# Format: cell-based
# Conditions: FIG. 5; calcium flux, THP-1 cells; read-out: IC50 (compiled data from four experiments, mean pIC50) (converted)
# Method: CCR2 inhibitory potency assay was determined using the calcium flux method.
# Ca^2+ flux measurements were performed using an FDSS micro-cell device ([…]). On the day of the experiment, THP-1 cells were seeded 20000 cells/well) to wells of black-walled clear-bottom 384-well plates.
# THP-1 cells were loaded with a calcium-sensitive fluorescent dye (Screen Quest™ Fluo-8 No Wash Calcium Assay Kit, AAT Bioquest) according to the manufacturer's instructions, then a first addition of either test sample dilutions or vehicle alone were added. 5 minutes later, cells were stimulated with 100 nM CCL2.
row,IC50,Compound
1,24 nM,"Cc1cnc(C(=O)c2ncnc3[nH]ccc23)c(NS(=O)(=O)c2ccc(Cl)c(C(F)(F)F)c2)c1 [CCX-140, reference compound]"

# Same assay, conditions: Table 3; CCR2 inhibition; read-out: mean IC50
row,IC50,Compound
1,2.2 nM,"CCL2 variant, N-terminal FP(Nle)DGWAPVT (SEQ ID NO: 10), human CCL2 Met64Nle core [CCL2-M64Nle-2P6]"
2,32.4 nM,"CCL2 variant, N-terminal MYGLGWNAPVT (SEQ ID NO: 23), human CCL2 Met64Nle core [CCL2-M64Nle-1P19]"
3,9.99 nM,"CCL2 variant, N-terminal IYGVGWNAPVT (SEQ ID NO: 14), human CCL2 Met64Nle core [CCL2-M64Nle-1P14]"
4,183 nM,"CCL2 variant, N-terminal TPGH(Nle)KAPVT (SEQ ID NO: 37), human CCL2 Met64Nle core [CCL2-M64Nle-2P4]"
5,26.7 nM,"CCL2 variant, N-terminal WYTVGWNAPVT (SEQ ID NO: 21), human CCL2 Met64Nle core [CCL2-M64Nle-1P16]"
6,18.4 nM,"CCL2 variant, N-terminal TPGYLKAPVT (SEQ ID NO: 19), human CCL2 Met64Nle core [CCL2-M64Nle-NGS-MEO-5]"
7,14.2 nM,"CCL2 variant, N-terminal WVLSSLNAPVT (SEQ ID NO: 17), human CCL2 Met64Nle core [CCL2-M64Nle-1P5]"
8,5.83 nM,"CCL2 variant, N-terminal RPYLWKAPVT (SEQ ID NO: 12), human CCL2 Met64Nle core [CCL2-M64Nle-2P5]"

# Same assay, conditions: Table 4; CCR2 inhibition; read-out: mean IC50
row,IC50,Compound
1,0.594 nM,"CCL2 variant, N-terminal FTNPTWDAVT (SEQ ID NO: 89), human CCL2 11-76 Met64Nle core [3P14-CCL2]"
2,65.8 nM,"CCL2 variant, N-terminal FP(Nle)DGWRPRQ (SEQ ID NO: 108), human CCL2 11-76 Met64Nle core (FP[Nle]DGWRPRQ; also: fused to human CCL2 11-76 core with Met64Nle) [4P5-CCL2]"
3,0.93 nM,"CCL2 variant, N-terminal FP(Nle)DGWRGLV (SEQ ID NO: 136), human CCL2 11-76 Met64Nle core (FP[Nle]DGWRGLV; also: followed by human CCL2 11-76 core with Met64Nle) [4P20-CCL2]"
4,0.718 nM,"CCL2 variant, N-terminal FTNPTWDPFT (SEQ ID NO: 95), human CCL2 11-76 Met64Nle core [3P20-CCL2]"
5,1.28 nM,"CCL2 variant, N-terminal FTNPTWDTGT (SEQ ID NO: 96), human CCL2 11-76 Met64Nle core (not fully specified (C-terminus); also: followed C-terminally by human CCL2 11-76 core with Met64Nle) [3P21-CCL2]"
6,0.585 nM,"CCL2 variant, N-terminal FTNPTWDSFS (SEQ ID NO: 84), human CCL2 11-76 Met64Nle core (not fully specified (C-terminus); also: followed C-terminally by human CCL2 11-76 core with Met64Nle) [3P9-CCL2]"
7,2.72 nM,"CCL2 variant, N-terminal FP(Nle)DGWGSRV (SEQ ID NO: 102), human CCL2 11-76 Met64Nle core (FP[Nle]DGWGSRV; also: followed by human CCL2 11-76 core with Met64Nle) [4P2-CCL2]"
8,1.23 nM,"CCL2 variant, N-terminal FTNPTWKPYA (SEQ ID NO: 91), human CCL2 11-76 Met64Nle core (not fully specified (C-terminus); also: followed C-terminally by human CCL2 11-76 core with Met64Nle) [3P16-CCL2]"
9,0.703 nM,"CCL2 variant, N-terminal FTNPTWDQFT (SEQ ID NO: 86), human CCL2 11-76 Met64Nle core [3P11-CCL2]"
10,0.82 nM,"CCL2 variant, N-terminal FP(Nle)DGWRGQV (SEQ ID NO: 128), human CCL2 11-76 Met64Nle core (FP[Nle]DGWRGQV; also: fused to human CCL2 11-76 core with Met64Nle) [4P16-CCL2]"
11,0.914 nM,"CCL2 variant, N-terminal FTNPTWSQGV (SEQ ID NO: 94), human CCL2 11-76 Met64Nle core (not fully specified (C-terminus); also: followed C-terminally by human CCL2 11-76 core with Met64Nle) [3P19-CCL2]"
12,0.965 nM,"CCL2 variant, N-terminal FP(Nle)DGWVSRT (SEQ ID NO: 124), human CCL2 11-76 Met64Nle core (FP[Nle]DGWVSRT; also: fused to human CCL2 11-76 core with Met64Nle) [4P14-CCL2]"
13,0.646 nM,"CCL2 variant, N-terminal FTNPTWDTQV (SEQ ID NO: 79), human CCL2 11-76 Met64Nle core (not fully specified (C-terminus); also: followed C-terminally by human CCL2 11-76 core with Met64Nle) [3P4-CCL2]"
14,1 nM,"CCL2 variant, N-terminal FTNPTWDAGV (SEQ ID NO: 97), human CCL2 11-76 Met64Nle core [3P22-CCL2]"

# Same assay, conditions: compiled data from four experiments
row,fold less potent than 1P2-CCL2,Compound
1,14.12 fold,"Cc1cnc(C(=O)c2ncnc3[nH]ccc23)c(NS(=O)(=O)c2ccc(Cl)c(C(F)(F)F)c2)c1 [CCX-140, reference compound]"
